Key:
[1] = target: T1, rPfRH5M, recombinant receptor binding fragment of PfRH5 encoded by the most prevalent haplotype rh5h1 (Y203) (Plasmodium falciparum, UniProt Q8IFM5 35-222, C203Y); assay: ITC; BSG injected drop by drop (1 min intervals) into the cell holding PfRH5_(3D7) or PfRH5M; BSG 10 times more concentrated than PfRH5; 25 °C; 0.1 M phosphate buffer, pH 7.0, Dulbecco PBS pH 7.4 in the reference cell (methods); PBS-BSG titration subtracted; fit to one set of binding sites; conditions: both partners purified
T1 construct: PfRH5, Plasmodium falciparum, field-isolate haplotype rh5h1, which differs from the Pf3D7 allele by C203Y; 188 aa, Glutamine-35 to Serine-222, amplified from DNA of an infected blood sample; Cloned BamHI/HindIII into pET-20b(+); also called PfRH5_(variant); Y203 allele; source: E. coli BL21 (DE3), purified (Ni-NTA)
T1 sequence (looked up): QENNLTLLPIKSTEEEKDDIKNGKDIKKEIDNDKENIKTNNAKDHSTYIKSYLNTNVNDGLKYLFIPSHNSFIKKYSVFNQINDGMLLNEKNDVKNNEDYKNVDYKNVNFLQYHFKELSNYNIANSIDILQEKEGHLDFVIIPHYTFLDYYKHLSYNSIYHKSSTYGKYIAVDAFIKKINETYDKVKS

[2] = target: T2, rPfRH5_(3D7), recombinant receptor binding fragment of P. falciparum reticulocyte binding protein-like … (Plasmodium falciparum, UniProt Q8IFM5 35-222); assay: as above; conditions: both partners purified
T2 construct: made by site-directed mutagenesis (Y203 to C) of the field-isolate clone rPfRH5M-pET-20b; Cloned BamHI/HindIII into pET-20b(+); also called C203 allele; source: E. coli BL21 (DE3), purified (Ni-NTA)
T2 sequence: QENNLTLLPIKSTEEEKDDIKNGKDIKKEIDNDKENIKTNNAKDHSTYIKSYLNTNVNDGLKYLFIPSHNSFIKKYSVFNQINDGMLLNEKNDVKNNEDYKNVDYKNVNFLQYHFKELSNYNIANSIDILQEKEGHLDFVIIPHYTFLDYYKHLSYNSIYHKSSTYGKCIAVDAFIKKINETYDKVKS

B1: basigin (BSG) (receptor)
chain: AAGTVFTTVEDLGSKILLTCSLNDSATEVTGHRWLKGGVVLKEDALPGQKTEFKVDSDDQWGEYSCVFLPEPMGTANIQLHGPPRVKAVKSSEHINEGETAMLVCKSESVPPVTDWAWYKITDSEDKALMNGSESRFFVSSSQGRSELHIENLNMEADPGQYRCNGTSSKGSDQAIITLRVRSHLAAL
- Ka [1]: 3.63e+06 M⁻¹
- Ka [2]: 1.31e+06 M⁻¹
